From PMC5651841, “The Staphylococcus aureus extracellular matrix protein (Emp) has a fibrous structure and binds to different extracellular matrices” (Scientific Reports, 2017)

Tests used:
[1] = target: fibronectin (Homo sapiens) (UniProt P02751); test: SPR; settings: cited from earlier work
[2] = target: fibrinogen (Homo sapiens) (UniProt P02671); test: SPR; settings: cited from earlier work
[3] = target: vitronectin (Homo sapiens) (UniProt P04004); test: SPR; settings: cited from earlier work
fibronectin = fibronectin (UniProt P02751 32-2477); test: ELISA; matrix component (0.25 ug/well in 0.1 M Na2CO3, overnight 4 C) immobilised on polystyrene plates; Emp forms 0-1.5 uM added for 1 h at RT, PBST washes; detected with polyclonal anti-Emp IgG and AP-conjugated anti-rabbit IgG; KD from steady-state curves, one-site binding model; settings: both partners purified
fibrinogen = target: T1, fibrinogen (UniProt P02671-2 20-644; P02675 31-491; P02679-2 27-437); test: as above; settings: both partners purified
T1 construct: fibrinogen alpha chain; fibrinogen beta chain; fibrinogen gamma chain; Named only as fibrinogen; also called Fg
T1 sequence (looked up) 1: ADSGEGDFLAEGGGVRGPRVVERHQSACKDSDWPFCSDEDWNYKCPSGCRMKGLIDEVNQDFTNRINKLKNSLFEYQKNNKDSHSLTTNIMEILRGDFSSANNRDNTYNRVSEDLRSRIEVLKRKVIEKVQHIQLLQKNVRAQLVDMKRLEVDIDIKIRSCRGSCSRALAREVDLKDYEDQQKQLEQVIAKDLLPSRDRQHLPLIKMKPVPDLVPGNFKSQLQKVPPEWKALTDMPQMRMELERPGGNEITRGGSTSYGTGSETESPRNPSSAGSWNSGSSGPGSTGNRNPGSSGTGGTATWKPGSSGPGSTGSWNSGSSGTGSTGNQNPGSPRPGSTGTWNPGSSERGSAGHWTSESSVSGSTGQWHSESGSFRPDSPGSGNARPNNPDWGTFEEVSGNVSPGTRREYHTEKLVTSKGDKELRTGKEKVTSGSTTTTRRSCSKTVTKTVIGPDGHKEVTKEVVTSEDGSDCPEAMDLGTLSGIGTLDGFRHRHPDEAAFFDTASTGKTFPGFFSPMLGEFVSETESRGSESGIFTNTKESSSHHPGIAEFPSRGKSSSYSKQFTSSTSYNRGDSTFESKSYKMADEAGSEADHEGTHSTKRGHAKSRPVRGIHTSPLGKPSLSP
T1 sequence (looked up) 2: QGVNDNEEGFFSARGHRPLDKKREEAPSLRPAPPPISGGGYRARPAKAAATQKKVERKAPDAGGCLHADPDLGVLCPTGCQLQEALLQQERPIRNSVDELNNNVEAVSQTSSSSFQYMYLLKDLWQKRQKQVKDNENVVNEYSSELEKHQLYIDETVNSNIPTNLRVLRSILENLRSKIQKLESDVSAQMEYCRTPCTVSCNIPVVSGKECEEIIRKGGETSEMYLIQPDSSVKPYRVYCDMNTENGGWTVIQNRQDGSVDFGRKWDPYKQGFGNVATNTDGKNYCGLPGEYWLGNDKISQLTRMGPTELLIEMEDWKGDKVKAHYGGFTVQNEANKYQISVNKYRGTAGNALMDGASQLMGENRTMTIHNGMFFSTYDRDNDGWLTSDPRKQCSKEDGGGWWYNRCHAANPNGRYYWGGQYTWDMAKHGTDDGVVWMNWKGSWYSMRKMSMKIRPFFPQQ
T1 sequence (looked up) 3: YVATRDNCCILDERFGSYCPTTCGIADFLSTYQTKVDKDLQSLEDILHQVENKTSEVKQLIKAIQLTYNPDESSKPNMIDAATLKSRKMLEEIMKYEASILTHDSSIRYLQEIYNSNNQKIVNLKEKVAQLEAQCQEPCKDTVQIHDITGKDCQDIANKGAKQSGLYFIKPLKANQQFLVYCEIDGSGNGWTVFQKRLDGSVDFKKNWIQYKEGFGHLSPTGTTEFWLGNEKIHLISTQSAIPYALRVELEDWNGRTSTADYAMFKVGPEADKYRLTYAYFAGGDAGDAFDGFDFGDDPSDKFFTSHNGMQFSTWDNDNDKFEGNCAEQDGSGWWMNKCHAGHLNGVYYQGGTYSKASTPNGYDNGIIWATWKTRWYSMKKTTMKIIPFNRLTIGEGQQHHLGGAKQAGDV

collagen I = target: T2, collagen I (UniProt P02452 162-1218; P08123 80-1119); test: as above; settings: both partners purified
T2 construct: collagen alpha-1(I) chain; collagen alpha-2(I) chain; Named only as collagen I; also called Cn I; Cn l

vitronectin = test: as above
Chain of vitronectin (P04004 20-478): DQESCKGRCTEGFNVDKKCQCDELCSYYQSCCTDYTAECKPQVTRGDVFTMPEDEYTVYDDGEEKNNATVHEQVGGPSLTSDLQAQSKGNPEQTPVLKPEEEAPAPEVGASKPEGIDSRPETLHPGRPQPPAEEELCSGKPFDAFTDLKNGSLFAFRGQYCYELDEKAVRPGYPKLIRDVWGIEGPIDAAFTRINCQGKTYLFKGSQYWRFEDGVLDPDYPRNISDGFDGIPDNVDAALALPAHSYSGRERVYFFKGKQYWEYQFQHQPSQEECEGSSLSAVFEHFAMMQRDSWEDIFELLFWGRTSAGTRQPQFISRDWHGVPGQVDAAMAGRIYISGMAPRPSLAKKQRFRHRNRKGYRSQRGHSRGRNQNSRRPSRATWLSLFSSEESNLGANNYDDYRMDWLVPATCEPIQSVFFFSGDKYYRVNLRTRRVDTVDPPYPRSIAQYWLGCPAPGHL

T2 sequence (P02452 162-1218, chain 1 of 2): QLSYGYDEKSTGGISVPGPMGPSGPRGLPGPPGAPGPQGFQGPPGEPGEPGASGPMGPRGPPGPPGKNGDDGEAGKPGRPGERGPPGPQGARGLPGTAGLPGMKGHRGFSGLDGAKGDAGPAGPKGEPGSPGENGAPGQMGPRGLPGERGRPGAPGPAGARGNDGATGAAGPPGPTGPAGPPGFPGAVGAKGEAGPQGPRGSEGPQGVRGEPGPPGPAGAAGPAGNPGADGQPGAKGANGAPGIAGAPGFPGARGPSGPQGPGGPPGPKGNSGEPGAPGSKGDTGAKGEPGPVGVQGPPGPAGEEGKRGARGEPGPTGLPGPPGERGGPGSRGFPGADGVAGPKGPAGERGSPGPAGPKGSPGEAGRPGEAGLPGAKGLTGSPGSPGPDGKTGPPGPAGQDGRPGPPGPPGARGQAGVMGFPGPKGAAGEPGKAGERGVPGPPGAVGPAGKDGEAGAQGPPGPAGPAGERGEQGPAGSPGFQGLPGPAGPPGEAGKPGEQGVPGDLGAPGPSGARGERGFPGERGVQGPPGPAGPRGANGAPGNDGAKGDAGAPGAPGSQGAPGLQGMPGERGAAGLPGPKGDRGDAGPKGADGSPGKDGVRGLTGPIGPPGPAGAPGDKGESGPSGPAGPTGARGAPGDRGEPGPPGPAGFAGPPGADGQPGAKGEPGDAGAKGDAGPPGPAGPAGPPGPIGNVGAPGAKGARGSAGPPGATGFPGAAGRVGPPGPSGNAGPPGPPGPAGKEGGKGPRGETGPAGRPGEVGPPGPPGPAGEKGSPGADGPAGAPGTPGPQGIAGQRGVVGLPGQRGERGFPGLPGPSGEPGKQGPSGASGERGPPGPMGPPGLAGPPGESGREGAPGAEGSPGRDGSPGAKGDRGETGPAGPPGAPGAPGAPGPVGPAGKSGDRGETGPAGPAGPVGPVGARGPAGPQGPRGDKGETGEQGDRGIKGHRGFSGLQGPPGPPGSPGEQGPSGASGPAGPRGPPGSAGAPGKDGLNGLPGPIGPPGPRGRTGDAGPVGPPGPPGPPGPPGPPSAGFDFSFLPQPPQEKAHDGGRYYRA
T2 sequence (P08123 80-1119, chain 2 of 2): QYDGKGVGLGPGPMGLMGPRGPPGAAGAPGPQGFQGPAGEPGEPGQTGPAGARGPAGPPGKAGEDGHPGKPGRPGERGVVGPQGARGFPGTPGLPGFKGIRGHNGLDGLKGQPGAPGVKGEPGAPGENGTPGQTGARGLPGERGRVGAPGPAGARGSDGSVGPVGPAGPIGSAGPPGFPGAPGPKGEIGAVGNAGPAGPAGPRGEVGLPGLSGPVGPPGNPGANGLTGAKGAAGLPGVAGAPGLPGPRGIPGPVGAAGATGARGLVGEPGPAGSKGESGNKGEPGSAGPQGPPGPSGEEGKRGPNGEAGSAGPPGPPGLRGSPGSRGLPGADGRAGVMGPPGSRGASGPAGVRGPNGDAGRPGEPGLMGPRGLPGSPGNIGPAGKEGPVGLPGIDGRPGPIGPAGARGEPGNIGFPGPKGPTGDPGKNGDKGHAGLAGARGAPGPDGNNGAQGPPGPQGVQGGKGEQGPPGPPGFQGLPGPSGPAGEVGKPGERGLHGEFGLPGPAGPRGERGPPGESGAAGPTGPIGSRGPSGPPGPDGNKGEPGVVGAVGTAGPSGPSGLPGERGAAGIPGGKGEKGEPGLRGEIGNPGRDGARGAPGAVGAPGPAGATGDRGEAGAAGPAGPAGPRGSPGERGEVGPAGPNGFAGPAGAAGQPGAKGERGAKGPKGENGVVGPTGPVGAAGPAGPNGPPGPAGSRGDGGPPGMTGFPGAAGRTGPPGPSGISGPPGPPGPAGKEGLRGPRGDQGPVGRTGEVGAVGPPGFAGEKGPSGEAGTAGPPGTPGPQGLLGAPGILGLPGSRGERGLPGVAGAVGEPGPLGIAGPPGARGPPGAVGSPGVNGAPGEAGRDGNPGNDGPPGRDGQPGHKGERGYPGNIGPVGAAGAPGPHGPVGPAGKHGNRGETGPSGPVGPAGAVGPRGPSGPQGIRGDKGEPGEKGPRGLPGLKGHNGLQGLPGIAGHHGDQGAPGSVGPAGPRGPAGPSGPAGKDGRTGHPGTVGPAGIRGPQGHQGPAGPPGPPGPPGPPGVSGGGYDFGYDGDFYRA
Chain of fibronectin (P02751 32-2477): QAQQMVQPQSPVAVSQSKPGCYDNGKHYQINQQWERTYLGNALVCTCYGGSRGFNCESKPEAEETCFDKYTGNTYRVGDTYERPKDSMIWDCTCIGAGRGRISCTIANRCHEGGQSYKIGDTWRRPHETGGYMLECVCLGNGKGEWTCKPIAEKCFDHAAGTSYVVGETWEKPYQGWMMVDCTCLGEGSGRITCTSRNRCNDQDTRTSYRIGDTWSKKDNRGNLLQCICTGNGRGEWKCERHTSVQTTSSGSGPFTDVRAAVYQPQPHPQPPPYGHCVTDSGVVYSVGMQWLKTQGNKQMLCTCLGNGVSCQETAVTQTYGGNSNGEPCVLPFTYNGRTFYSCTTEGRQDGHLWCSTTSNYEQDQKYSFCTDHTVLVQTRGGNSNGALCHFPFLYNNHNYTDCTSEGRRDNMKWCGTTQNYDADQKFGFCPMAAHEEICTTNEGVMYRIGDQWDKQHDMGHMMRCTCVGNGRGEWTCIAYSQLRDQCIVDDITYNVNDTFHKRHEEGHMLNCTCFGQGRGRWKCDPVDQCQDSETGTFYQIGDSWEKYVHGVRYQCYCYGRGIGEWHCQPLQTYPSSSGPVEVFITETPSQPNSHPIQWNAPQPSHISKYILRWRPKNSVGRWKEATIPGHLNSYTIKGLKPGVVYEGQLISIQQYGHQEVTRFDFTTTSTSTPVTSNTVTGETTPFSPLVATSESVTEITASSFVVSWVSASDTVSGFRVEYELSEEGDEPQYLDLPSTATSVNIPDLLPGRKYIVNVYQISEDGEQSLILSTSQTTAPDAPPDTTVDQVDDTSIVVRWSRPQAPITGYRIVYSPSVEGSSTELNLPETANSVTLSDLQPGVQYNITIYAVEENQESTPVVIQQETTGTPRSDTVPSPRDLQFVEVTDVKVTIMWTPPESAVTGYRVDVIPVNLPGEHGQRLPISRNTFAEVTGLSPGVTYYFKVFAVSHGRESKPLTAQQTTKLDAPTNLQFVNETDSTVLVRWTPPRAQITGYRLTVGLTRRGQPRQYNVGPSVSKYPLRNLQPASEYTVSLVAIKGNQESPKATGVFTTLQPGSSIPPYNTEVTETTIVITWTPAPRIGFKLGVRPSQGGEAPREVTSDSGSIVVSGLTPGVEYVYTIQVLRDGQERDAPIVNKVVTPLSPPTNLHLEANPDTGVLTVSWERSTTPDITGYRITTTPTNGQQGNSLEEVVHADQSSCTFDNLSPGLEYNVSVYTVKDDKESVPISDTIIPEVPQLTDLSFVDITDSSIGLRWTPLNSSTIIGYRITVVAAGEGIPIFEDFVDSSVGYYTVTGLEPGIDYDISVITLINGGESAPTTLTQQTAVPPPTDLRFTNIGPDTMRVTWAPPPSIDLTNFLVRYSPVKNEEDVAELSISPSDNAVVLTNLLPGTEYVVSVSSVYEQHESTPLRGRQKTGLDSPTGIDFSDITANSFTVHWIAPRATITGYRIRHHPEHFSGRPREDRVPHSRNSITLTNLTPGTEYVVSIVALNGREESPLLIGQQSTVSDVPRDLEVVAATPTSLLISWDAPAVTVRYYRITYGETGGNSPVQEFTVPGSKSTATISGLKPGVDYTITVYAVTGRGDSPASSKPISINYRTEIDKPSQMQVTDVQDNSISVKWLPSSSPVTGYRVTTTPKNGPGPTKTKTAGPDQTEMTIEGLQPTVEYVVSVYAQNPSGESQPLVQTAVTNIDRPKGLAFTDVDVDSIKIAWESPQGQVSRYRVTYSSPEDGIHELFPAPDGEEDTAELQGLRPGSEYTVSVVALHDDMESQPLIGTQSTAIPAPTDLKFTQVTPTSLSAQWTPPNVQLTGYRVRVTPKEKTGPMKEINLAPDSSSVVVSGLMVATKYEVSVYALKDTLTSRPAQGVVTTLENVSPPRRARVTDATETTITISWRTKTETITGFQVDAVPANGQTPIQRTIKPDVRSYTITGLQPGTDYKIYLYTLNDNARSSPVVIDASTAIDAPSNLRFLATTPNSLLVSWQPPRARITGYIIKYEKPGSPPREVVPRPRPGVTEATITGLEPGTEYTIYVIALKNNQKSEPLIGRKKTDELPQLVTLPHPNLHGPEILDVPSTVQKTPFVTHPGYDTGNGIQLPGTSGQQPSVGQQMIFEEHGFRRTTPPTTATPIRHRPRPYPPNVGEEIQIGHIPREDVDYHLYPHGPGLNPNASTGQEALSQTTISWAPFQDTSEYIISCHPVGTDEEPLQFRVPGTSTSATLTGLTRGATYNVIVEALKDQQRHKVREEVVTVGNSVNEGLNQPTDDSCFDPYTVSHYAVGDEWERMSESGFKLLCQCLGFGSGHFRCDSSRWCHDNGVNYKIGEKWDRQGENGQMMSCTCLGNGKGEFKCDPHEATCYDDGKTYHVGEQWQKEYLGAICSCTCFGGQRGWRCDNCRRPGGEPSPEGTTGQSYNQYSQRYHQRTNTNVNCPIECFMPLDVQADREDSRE
Chain of vitronectin (Homo sapiens) (P04004 399-478): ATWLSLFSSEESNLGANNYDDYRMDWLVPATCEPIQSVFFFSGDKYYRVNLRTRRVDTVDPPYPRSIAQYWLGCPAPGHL
Chain of fibronectin (Homo sapiens) (P02751 32-2477): as the sequence (P02751 32-2477) above

## Emp (from UniProt Q7A6P4)
[1]
  Kd: 21 nM
[2]
  Kd: 91 nM
[3]
  Kd: 0.122 nM

B1: full-length Emp protein (extracellular matrix protein Emp of Staphylococcus aureus, without the signal peptide) (natural protein)
chain: SVTESVDKKFVVPESGINKIIPAYDEFKNSPKVNVSNLTDNKNFVASEDKLNKIADSSAASKIVDKNFVVPESKLGNIVPEYKEINNRVNVATNNPASQQVDKHFVAKGPEVNRFITQNKVNHHFITTQTHYKKVITSYKSTHVHKHVNHAKDSINKHFIVKPSESPRYTHPSQSLIIKHHFAVPGYHAHKFVTPGHASIKINHFCVVPQINSFKVIPPYGHNSHRMHVPSFQNNTTATHQNAKVNKAYDYKYFYSYKVVKGVKKYFSFSQSNGYKIGKPSLNIKNVNYQYAVPSYSPTHYVPEFKGSLPAPRV
notes: gene of 1,023 nucleotides; numbers count on: the protein without signal peptide and without His-tag; The vector (printed pQ30-UA, Qiagen) probably adds an N-terminal His6 (surmised); Primer EmpFor1UA starts at nt +76 (codon 26), which would give 315 residues against the printed 314; also called EmpFL; source: E. coli (TG1 transformants, plasmid pQemp), purified (Ni-NTA in 8 M urea, solubilized by …)
fibronectin
  Kd: 43 ± 11 nM
fibrinogen
  Kd: 70 ± 1 nM
Collagen I
  Kd: 27 ± 5 nM
vitronectin
  Kd: 34 nM

B2: Emp2 (central fragment of Emp) (domain or fragment)
chain: YKEINNRVNVATNNPASQQVDKHFVAKGPEVNRFITQNKVNHHFITTQTHYKKVITSYKSTHVHKHVNHAKDSINKHFIVKPSESPRYTHPSQSLIIKHHFAVPGYHAH
notes: primers EmpFor2UA (+322) and EmpRev2UA (+648) relative to ATG; limits worked out from these positions and count on the precursor; source: E. coli (TG1 transformants, plasmid pQemp2), purified (Ni-NTA in 8 M urea, solubilized by stepwise dialysis)
fibronectin
  Kd: 8 ± 3 nM
fibrinogen
  Kd: 9 ± 2.6 nM
Collagen I
  Kd: 13 ± 6 nM
vitronectin
  Kd: 18 nM

B3: Emp3 (C-terminal fragment of Emp) (domain or fragment)
chain: FAVPGYHAHKFVTPGHASIKINHFCVVPQINSFKVIPPYGHNSHRMHVPSFQNNTTATHQNAKVNKAYDYKYFYSYKVVKGVKKYFSFSQSNGYKIGKPSLNIKNVNYQYAVPSYSPTHYVPEFKGSLPAPRV
notes: primers EmpFor3UA (+622) and EmpRev3UA (+1024, holds the stop codon) relative to ATG; limits worked out from these positions and count on the precursor; source: E. coli (TG1 transformants, plasmid pQemp3), purified (Ni-NTA in 8 M urea, solubilized by stepwise dialysis)
fibronectin
  Kd: 311 ± 79 nM
fibrinogen
  Kd: 756 ± 224 nM
Collagen I
  Kd: 32 ± 7 nM
vitronectin
  Kd: 449 nM

B4: Emp1+2 (combination of Emp1 and Emp2) (domain or fragment)
chain: ASVTESVDKKFVVPESGINKIIPAYDEFKNSPKVNVSNLTDNKNFVASEDKLNKIADSSAASKIVDKNFVVPESKLGNIVPEYKEINNRVNVATNNPASQQVDKHFVAKGPEVNRFITQNKVNHHFITTQTHYKKVITSYKSTHVHKHVNHAKDSINKHFIVKPSESPRYTHPSQSLIIKHHFAVPGYHAH
notes: limits worked out from these positions and count on the precursor; source: E. coli (TG1 transformants, plasmid pQemp1 + 2), purified (Ni-NTA in 8 M urea, solubilized by stepwise dialysis)
fibronectin
  Kd: 3 ± 2 nM
fibrinogen
  Kd: 14 ± 3 nM
Collagen I
  Kd: 31 ± 5 nM
vitronectin
  Kd: 9 nM

B5: Emp2+3 (combination of Emp2 and Emp3; N-truncated Emp) (domain or fragment)
chain: YKEINNRVNVATNNPASQQVDKHFVAKGPEVNRFITQNKVNHHFITTQTHYKKVITSYKSTHVHKHVNHAKDSINKHFIVKPSESPRYTHPSQSLIIKHHFAVPGYHAHKFVTPGHASIKINHFCVVPQINSFKVIPPYGHNSHRMHVPSFQNNTTATHQNAKVNKAYDYKYFYSYKVVKGVKKYFSFSQSNGYKIGKPSLNIKNVNYQYAVPSYSPTHYVPEFKGSLPAPRV
notes: limits worked out from these positions and count on the precursor; source: E. coli (TG1 transformants, plasmid pQemp2 + 3), purified (Ni-NTA in 8 M urea, solubilized by stepwise dialysis)
fibronectin
  Kd: 404 ± 95 nM
fibrinogen
  Kd: 556 ± 115 nM
Collagen I
  Kd: 207 ± 44 nM
vitronectin
  Kd: 200 nM
